Laboratory results reported in patent US20250152746A1, “BASE EDITING OF ANGPTL3 AND METHODS OF USING SAME FOR TREATMENT OF DISEASE” (Verve Therapeutics, Inc., priority 2020, published 2025).
Like-named read-outs stand apart in the source and are kept apart here. In the oligonucleotide strings, read from the 5' end, every base follows the letter of its sugar. An asterisk marks phosphorothioate; unmarked linkages are phosphodiester. Other units and linkages are bracketed, terminal groups are in braces. A string of capitals states the bases alone. m = 2'-O-methyl; r = 2'-OH (RNA)

B1: GA108: ANGPTL3 gRNA; protospacer TCCCAACTGAAGGAGGCCAT (SEQ ID NO: 106) (nucleic acid)
guide: UCCCAACTGAAGGAGGCCATGTTTTAGAGCTAGAAATAGCAAGTTAAAATAAGGCTAGTCCGTTATCAACTTGAAAAAGTGGCACCGAGTCGGTGCTTTT
modifications: 2'-O-methyl at 1, 2, other sugars, backbone and T or U not given here; further chemistry not fully specified
B2: GA109: ANGPTL3 gRNA; protospacer GGCCTCCTTCAGTTGGGACA (SEQ ID NO: 107) (nucleic acid)
guide: GGCCTCCTTCAGTTGGGACAGTTTTAGAGCTAGAAATAGCAAGTTAAAATAAGGCTAGTCCGTTATCAACTTGAAAAAGTGGCACCGAGTCGGTGCTTTT
modifications: 2'-O-methyl at 1, 2, other sugars and backbone not given here; further chemistry not fully specified
B3: GA110: ANGPTL3 gRNA; protospacer GACCATGTCCCAACTGAAGG (SEQ ID NO: 108) (nucleic acid)
guide: GACCATGTCCCAACTGAAGGGTTTTAGAGCTAGAAATAGCAAGTTAAAATAAGGCTAGTCCGTTATCAACTTGAAAAAGTGGCACCGAGTCGGTGCTTTT
modifications: 2'-O-methyl at 1, 2, other sugars and backbone not given here; further chemistry not fully specified
B4: GA111: ANGPTL3 gRNA; protospacer GCCAATGGCCTCCTTCAGTT (SEQ ID NO: 109) (nucleic acid)
guide: GCCAATGGCCTCCTTCAGTTGTTTTAGAGCTAGAAATAGCAAGTTAAAATAAGGCTAGTCCGTTATCAACTTGAAAAAGTGGCACCGAGTCGGTGCTTTT
modifications: 2'-O-methyl at 1, 2, other sugars and backbone not given here; further chemistry not fully specified
B5: GA115: ANGPTL3 gRNA; protospacer AACATAGCAAATCTTGATTT (SEQ ID NO: 113) (nucleic acid)
guide: AACATAGCAAATCTTGATTTGTTTTAGAGCTAGAAATAGCAAGTTAAAATAAGGCTAGTCCGTTATCAACTTGAAAAAGTGGCACCGAGTCGGTGCTTTT
modifications: 2'-O-methyl at 1, 2, other sugars and backbone not given here; further chemistry not fully specified
B6: GA129: ANGPTL3 gRNA; protospacer AGTTCTTGGTGCTCTTGGCT (SEQ ID NO: 127) (nucleic acid)
guide: AGTTCTTGGTGCTCTTGGCTGTTTTAGAGCTAGAAATAGCAAGTTAAAATAAGGCTAGTCCGTTATCAACTTGAAAAAGTGGCACCGAGTCGGTGCTTTT
modifications: 2'-O-methyl at 1, 2, other sugars and backbone not given here; further chemistry not fully specified
B7: GA391 (nucleic acid)
guide: mC*mC*rGrCrArCrCrUrUrGrGrCrGrCrArGrCrGrGmGrUrUrUrUrArGmAmGmCmUmArGmAmAmAmUmAmGmCmAmArGrUrUmArAmArAmUrAmAmGmGmCmUmArGrUmCmCrGrUrUrAmUmCrArAmCmUmUrGmAmAmAmAmAmGmUmGrGmCmAmCmCmGmAmGmUmCmGmGmUmGmCmU*mU*mU*mU

What was measured:
[1] = system: ANGPTL3 gene; experiment: ANGPTL3 gRNA/SpCas9 editing in primary cynomolgus hepatocytes (Table 3); format: cell-based, cynomolgus monkey
Method: (§1) In set of experiments, PCSK9 gRNAs were co-transfected with an equivalent amount (1:1 ratio by weight) of in vitro transcribed commercially available SpCas9 mRNA MS002 purchased from TriLink Biotechnologies into primary human hepatocytes at 2500, 500, or 100 ng/RNA/mL and processed as described in detailed methods. Extracted genomic DNA was analyzed for gene editing at the target site with next-generation sequencing of PCR amplicons generated around the target sites. Samples were prepared using the Nextera XT DNA library preparation kit (Illumina) according to the manufacturer's protocol. Briefly, two rounds of PCR were performed first to amplify the region of interest and second to add DNA sequences required for next generation sequencing and sample identification to the initial product. The final amplicon was sequenced on the Illumina MiSeq instrument according to the manufacturer's protocol. A wide range of editing activities (Table 2) were observed. In a second set of experiments, ANGPTL3 gRNAs were co-transfected with an equivalent amount of in vitro transcribed SpCas9 mRNA (1:1 ratio by weight) into primary human hepatocytes and processed and analyzed similarly (Table 3).
(§2) Plating, culturing, and transfection of primary hepatocytes. Primary human liver hepatocytes (PHH) and primary cynomolgus liver hepatocytes (PCH) from BioIVT were cultured per the manufacturer's protocol. Briefly, primary human hepatocytes and primary cyno hepatocytes were obtained as frozen aliquots from BioIVT. Four lots of primary human hepatocytes, each derived from a de-identified individual donor, were used for the experiments: STL (main donor) was used for all experiments, including screening experiments and off-target experiments; HLY, JLP, and TLY were used for off-target experiments. The HFG lot of primary cyno hepatocytes were used for experiments. Following the manufacturer's instructions, cells were thawed and rinsed prior to plating in 24-well plates that had been coated with bovine collagen overnight, with a density of approximate 350,000 cells/well in INVITROGRO hepatocyte medium supplemented with TORPEDO antibiotic mix (BioIVT). The cells were thawed and resuspended in hepatocyte thawing medium followed by centrifugation at 100 g for 10 min at 4° C. The supernatant was discarded, and the pelleted cells resuspended in hepatocyte plating medium. Each vial contains approximately 5 million cells that were used for plating one 24-well plate. Plated cells were allowed to settle and adhere for 4-6 h in a tissue culture incubator at 37° C. under 5% CO2 atmosphere. After incubation, cells were checked for monolayer formation. The incubating media were then replaced with fresh hepatocyte maintenance media (complete INVITROGRO medium obtained from BioIVT, the cell line provider). The cells thus became ready for transfection. Each of the gRNAs were co-transfected with an equivalent amount of in vitro transcribed ABE8.8 mRNA (1:1 ratio by molecular weight) into primary human hepatocytes via MessengerMax reagent (Lipofectamine), using various dilutions to assess for editing activity at different concentrations of test article. MessengerMAX from Thermo Fisher is used for transfection. Solution A: desired amount of guide RNA is mixed with 1:1 wt ratio of mRNA in OptiMEM. Solution B: MessengerMAX in OptiMEM. After mixing solutions A and B, the mixture was incubated at room temperature for 20 min. 60 μL of the incubated solution was added dropwise to each cell wells. For protospacer sequences that were a perfect match to the corresponding cynomolgous monkey PCSK9 or ANGPTL3 gene sequence, each gRNA was also co-transfected with an equivalent amount of ABE8.8 mRNA (1:1 ratio by molecular weight) into primary cynomolgous hepatocytes, and followed the same transfection protocol. The cells were then allowed to remain at 37° C. for 3 days. […]

[2] = system: ANGPTL3 gene; experiment: ANGPTL3 gRNA/SpCas9 editing in primary human hepatocytes (Table 3); format: cell-based
Method: as §1, §2

[3] = system: PCSK9 gene splice site; format: cell-based, human; details: Human Primary Hepatocytes, gRNA co-transfected with ABE8.8 mRNA 1:1 by weight
Method: PCSK9 gRNAs were co-transfected with an equivalent amount of in vitro transcribed ABE8.8 mRNA MA002 (1:1 ratio by weight) into primary hepatocytes and processed as described in detailed methods. In one set of experiments, extracted genomic DNA was analyzed for base editing of the target splice site with next-generation sequencing of PCR amplicons generated around the target sites. Samples were prepared using the Nextera XT DNA library preparation kit (Illumina) according to the manufacturer's protocol. Briefly, two rounds of PCR were performed first to amplify the region of interest and second to add DNA sequences required for next generation sequencing and sample identification to the initial product. The final amplicon was sequenced on the Illumina MiSeq instrument according to the manufacturer's protocol.
Similarly, three gRNAs (GA098, GA099, GA100) were synthesized matching the 5′-[…]-3′ (SEQ ID NO: 15) (GA091) human protospacer sequence, as well as four gRNAs (GA067/GA101, GA102, GA103, GA347) matching the 5′-[…]-3′ (SEQ ID NO: 14) (GA067) cynomolgus protospacer sequence, but with more extensive chemical modifications of various kinds (Table 1). GA066 and GA095 contain the same chemical composition and modification pattern, as do GA067 and GA101 with one another. […] Each of the gRNAs described in Table 8, with an equivalent amount of in vitro transcribed ABE8.8 mRNA MA002 (1:1 ratio by weight), were co-transfected into primary human hepatocytes and primary cynomolgus hepatocytes via MessengerMax reagent, using various dilutions to assess for editing activity at different concentrations of test article. Three days after transfection, genomic DNA was harvested from the hepatocytes, and then assessed for base editing of the target splice site with next-generation sequencing.
Modifications and/or truncations to either the spacer or tracr portion of the gRNA was assessed by alteration of the GA066 spacer (5′-[…]-3′ (SEQ ID NO: 13)) (Table 12). […] Each of the gRNAs with an equivalent amount of in vitro transcribed ABE8.8 mRNA (1:1 ratio by weight) were co-transfected into primary human hepatocytes and primary cynomolgus hepatocytes and processed as described in detailed methods. […]

Row | Molecule | Cyno Primary Hepatocyte Editing % 100 ng/mL [1] [%] | Cyno Primary Hepatocyte Editing % 500 ng/ml [1] [%] | Human Primary Hepatocyte Editing % 100 ng/ml [2] [%] | Human Primary Hepatocyte Editing % 500 ng/mL [2] [%] | further results
1 | B1 | 4.11 | 15.49 | 4.95 | 19.43 | 
2 | B2 | 4.15 | 15.11 | 6.60 | 18.07 | 
3 | B3 | 8.59 | 15.99 | 5.37 | 13.63 | 
4 | B4 | 22.61 | 28.98 | 10.72 | 24.08 | 
5 | B5 | 12.58 | 25.51 |  |  | 
6 | B6 | 5.36 | 20.06 |  |  | 
7 | B7 |  |  |  |  | Editing % at Position 6 ([3]; 312.5 ng/mL, rep1): 16.86%; Editing % at Position 6 ([3]; 312.5 ng/mL, rep2): 15.78%; Editing % at Position 6 ([3]; 625 ng/mL, rep1): 27.12%; Editing % at Position 6 ([3]; 625 ng/mL, rep2): 18.67%; Editing % at Position 6 ([3]; 1250 ng/mL, rep1): 25.43%; Editing % at Position 6 ([3]; 1250 ng/mL, rep2): 27.3%; Editing % at Position 6 ([3]; 2500 ng/mL, rep1): 25.58%; Editing % at Position 6 ([3]; 2500 ng/mL, rep2): 30.06%
